Assay results from the DeepSol protein solubility set.

Experiment: soluble on expression in E. coli; label from the status in PepcDB or PDB records

Sequence: MGSDKIHHHHHHMHQTLATSRKTSNACNVLALCTRDNPAILTIAHRGFWTATAENSLASVRAAVAAGVEMIEIDTQATADGRLVVIHDETLDRTTTGKGTVSALPFEVVRAAKLKAGAGGDGADVTDECVPTLEEVLEEARGRITVNIDTKFTRDLPQVMETVLRLGVEDQVLVKTDVDPEAERFEVLGSHWFGRIPHMPMFPVRKGKFAEDLRRIEALKAPMIEVKFTDIADLAEGRAEMERQNIRLWINSLDVSHCLDFNDTRALSNPEAVWGALAEAGTGAIQTDEVEAFTAWLKAGAGETGRAWTR
- soluble on expression in E. coli: not soluble

Sequence: MSLVTIKEIASAVGVSSATVSRVLNYDPTLSISTRKRQAIIETAEALNYATPRNRNRAAAQAVGSGLKIALVHFLDPAQELADPYYVGVRLGIESRCQALNSDVVKVFLTGNTPEATILEGASGVVAVGHYYGDELEWLRRHSRHLVFADYAPAGDMEDTVLSDVSQAMIRLLEAVHAMGYRRIGFIGWIDAFYGPDNIHSERRCHTYIDWMTKTGLFDPELCLVDPMTPDSGYRLAKAMLSKPNPPKILITCNDNMALGAYRAINEMGLRIPDDVAVASFNDIPVAQFLGPPLSTVKIPAELIGETAVDLLVERLSGREVAKKVVFGTEIIWRASTEGHHHHHH
- soluble on expression in E. coli: soluble

Sequence: LYIRGLQPGTTDQDLVKLCQPYGKIVSTKAILDKTTNKCKGYGFVDFDSPSAAQKAVTALKASGVQAQMAKQ
- soluble on expression in E. coli: soluble

Sequence: MSKGHSLQDPYLNTLRKERVPVSIYLVNGIKLQGQIESFDQFVILLKNTVSQMVYKHAISTVVPSRPVRLPSGDQPAEPGNA
- soluble on expression in E. coli: soluble

Sequence: MKEQKISPISVLDQSPMFVSGVMQRMYRNRAQAELCRQNQMTLEMASALAALEEFQPMSQQALADAVLTERSVAKRMVDNLEKRGFVCVSKSEANQRLKMLSLTKEGEATIKKVHQIMRNLQREFFSCLSEDESAEFFRLVRKMTLANNS
- soluble on expression in E. coli: not soluble

Sequence: MVQNIPIYIQIHDKIKEDIEKGVWSIGDRLPSERELALKFDVSRMTLRQAIQTLADEGILERKIGSGTYVARKKVQETMTGTTSFTEITLSQNRVPSSRTVSYFVAKPSSSEMEKLQLGPEDSILRMERIRFADDIPICFEVASIPYSLVSQYGKSEITNSFYKTLEAKSGHKIGHSNQTISAVQASEQIAEYLEIKRGDAILRVRQVSYFENGLPFEYVRTQYAGSRFEFYLEK
- soluble on expression in E. coli: not soluble

Sequence: MGSDKIHHHHHHMKQTDVVVIGSGVGGLSCAALLARYGFDVTVCESHSIPGGAAHGFERQGFKFDSGPSLYSGLSYSPSVNPLRQVLDAVGVDLPCVTYDTWGCCLPEGDFDAAVGAEQFCEVLGRLRGEAAVAEWRRLQQVMTPLAQAAIALPPAALRWDIGAALTIGRFAPTLAKQSANFFKLTGPFSRIMDGVVHDPFISNWLNLLCFLLSGLPASGTNAAEVAFMFADWYRPGVALDYPIGGSGALVNALVEGFKKHGGELLLHTHVEQVLVEGNKAAGVRLGDGQEIRARRAVVSNASVWDTLKLLPEGAVSQKFRSQRQATPECDSFMHLHLGINAQGLPPDLACHYIVVNDWELEITAPQNVILVSIPSILDPSLAPQGKHVIHVYTPGNEPYTLWQGMDRRSQEYEQQKRSRAEVMWQAVERIIPDIRSRCEIQLVGTPLTHERFLRRYRGSYGPAISAASGLFPGHGTPLPGLMCCGDSTFPGIGLPAVAASGMIVANTLAPVSQHLAMLDRVGL
- soluble on expression in E. coli: not soluble

Sequence: MDDSLGVSEVVMIPFMKREVLQQICAILDTDNTWETIAPYMPGIELRDVEGCKRYSSYNQSPSELLLRIWSSKGYSTTHLYQLFAKTKLIRLMRMMRSQVHEKYHYLENKVTNSTSRVSKQMVQPPGSQSASRLKKTEIKESSPSPAAAAASQLSRSNTDDTLRVAIEGTLPVTYCELLEATNGFAVSNVIGKGGYGTVYKGELKGTGGIVAVKRLHSGNDTSQNGSRERLRQSLTELRTLARFRHDNILPIYAYSLEGSEPCLVYQFMSNGSLEDRLLCRKGSVPLTWIQRKEISIGAGRGLGFLHSFGKTPIIHGDIKTANILLDKHMEPKIGDFGLCRDGHVEAEAMEKHPLIASHIKGTLAYLAPEFITSKILTTKLDVYSFGIVLLEIASGQRAYSDSRETRGLVEYCQVNKELAAHRKIPVREIFIDRRAPPLVGDEEKSFLDALIEVGLAGANNDRKVRPTMSQIVEYLCKNSIPPVV
- soluble on expression in E. coli: not soluble

Sequence: MAEDKTKPSELDQGKYDADDNVKIICLGDSAVGKSKLMERFLMDGFQPQQLSTYALTLYKHTATVDGRTILVDFWDTAGQERFQSMHASYYHKAHACIMVFDVQRKVTYRNLSTWYTELREFRPEIPCIVVANKIDADINVTQKSFNFAKKFSLPLYFVSAADGTNVVKLFNDAIRLAVSYKQNSQDFMDEIFQELENFSLEQEEEDVPDQEQSSSIETPSEEAASPHS
- soluble on expression in E. coli: soluble

Sequence: MKIFTVCQSGLGTSFMVQMNIQQILEEVGVDTDNFQIDHTDVGSASGDMADYFFVEKTLQDALGSIPAEKIIPLNAIIDYDETKEKVLKVLDDNGIAHQ
- soluble on expression in E. coli: not soluble

Sequence: SGFLEQRLGHCLRQMAEKGLEALLVTHLTNSYYLTGFSGTAATVLITAKRRVLITDSRYTLLAKASVEGFDIIESRTPLKVVAELLEADQIDCLGFEDQVSFSFYQAMQAELSGITLLAQSGFVEHLR
- soluble on expression in E. coli: not soluble

Sequence: MSLHGVPFGTVPPMGTIGLIAAMPDEIRPFLRLASPAARLHGGRFPIWRLRVGNDDIVLVESGMGIDRATAATDALVAAASPVAILSFGFGGAALPGLKVGDLAVGMTSWFAGTEGIVLRRGIDRNLAEKLAEELNRICNGVTRGEIITSARILKKGDLAHSLPNGISSPILDMETAAVAEAAHRRGIPIVALRAISDDAEEELSFSLDEFTDDDMAIRPRKVLATIARKEGHHHHHH
- soluble on expression in E. coli: soluble

Sequence: MKILLIGGSGNIGRAIAAELSGRHEIIAAGRHHGDVRVDIEDEQSIAAMYRQLPRLDAVAVATGGRNGHVGPLAEMNAERYRVGLDAKLMGQVNLVLRGLDKVADGGSFTLVGGAWQPQAIVPLLSNVYMANAALEGFVNAAAVELPRRLRINLVSPLLLAESEAEYGPLFRGVPLVEARQVARAYSLSIEGLEHHHHHH
- soluble on expression in E. coli: not soluble

Sequence: MTTRRLALFDLDHTLLPLDSDYQWADFLARTGRAGDPAEARRRNDDLMERYNRGELTAEQAAEFMLGLLAAHSPVELAAWHEEFMRDVIRPSLTVQAVDVVRGHLAAGDLCALVTATNSFVTAPIARAFGVQHLIATDPEYRDGRYTGRIEGTPSFREGKVVRVNQWLAGMGLALGDFAESYFYSDSVNDVPLLEAVTRPIAANPSPGLREIAQARGWQVIDLFDHLEDAKS
- soluble on expression in E. coli: soluble

Sequence: GPGSMAPNQFVELVDTVEKYATRGSNECGCRIDTREESIPSNTLVGYPFANAEGVGVHLSYRKGDITLSADVSSNPKATWRDVLPTFSWTRSLRGQQHEVLLRLAMTPLFAYSFSHPQFTCSSEVNFMDGFRSKFTTSTQLSMRNQLGACVEYDPSRSGVIDYTVAFLRAGCSAVLGGDFVVQYNATRGLGVHTRIPVKPFMGAVALVERGRVIIGTEARSPCGAQMMMNLDLVNSRVMLAVVRNISTVWKFTFNYSAPLPGTSSAARRFGLVFTSQDAP
- soluble on expression in E. coli: not soluble

Sequence: MKQYFYERECQNPELREQSLLERLPSFITYAKQECQHYGQILQHIDADKITSRELLAQLPITRKSDLMKLQAKNSPLGGLNANKANIGRIFQSPGPIYDPENTSDDWWRLGQAFYAAGFRAGDIVQNCLSYHLTPGGFILDSGARACGCVVIPAGPGQTEQQLDIIEHLKPQGYSGTPSFLKILLDKAKAENRDISSVTKALVTGEALPKGLRAEFDAAGINTLQAYASADVGLIGFESKSDDGFIIAEDLLVEIVRPGTLEPVADGEIGEVVVTSFNVDYPLIRFATGDLSAVKSSESACGRTNMCIKGWLGRADQTTKIKGMFVHAEQIEQVRQAYPHIAKMRLSVTQVNYNDQMNLQCELDSSGYSEADIAGAIENISSSLKKTTKLNGAVELVAVGTLADDGKVIDDLRPIG
- soluble on expression in E. coli: not soluble

Sequence: MGSDKIHHHHHHMALPVLICDDSAMARKQMARTLPKDWDVDITFATNGAEGLEAIRAGKGEVVFLDLNMPVMDGYEVLQTIQQQDLPALVIVVSGDIQIKAHERVKALGALDFIQKPVSAEAIAGILQEYGILVPGEGEGDEAEDNPLLKVDMRDACQEIANVAMGRAADLLAKLLDVFVVLPIPNVNVLEVSELTMALKATETSAKVTALCQGFIGAGVAGEALLLFHDSSFQDMAKLMKLDGPGDEATEVEVLIDTGNVLIGAFLNGIAEQLDMHFSQAHPVVLGRHCTVNDLIHDNAEKWHRTLAMEINYRIEDHNIECDLLLLFTEDSLPTLNYKLGYMLDTD
- soluble on expression in E. coli: not soluble

Sequence: MSLSSDMEGGMITMKANDTTKYLIHAEIEAEGVVERPDVVGAIFGQTEGLLGGDLDLRELQKTGRIGRIEVKIESKGGRSFGEIKVPSSLDKVETAILAAALETIERVGPCSAKIKVLKIEDVRASKRKRIVERAMNILREHFEEPEIESERIVEIVRQAIRADEIVEYGEEKLPAGPAIDESDAIIVVEGRADVLNLLKHGIKNVIAVEGTNIPKTIVELSKKKTVTAFLDGDRGGDLILKELLQVAEVDYVARAPEGKEVEDLTQKEILKSLRNKVPVEQLHVLKKEAKEGREREKLAEMPKDSISDVLRKHTESVKGRLTARVLDRNLNVIKEVPVRDLVKILKTNNMKGSAIVFDGIITQRLIDLAAKKEFDYIVGVRLGSVVKVPTSLRVITFDQLEGHHHHHH
- soluble on expression in E. coli: not soluble

Sequence: MDNHGILESLLFTAGDEGLDEKQLLEILDMSKDQLVELIENYSSHGLMIQRFGMTYVLTTKKEAATYIEQLIEQKSQMKLSQAAMEVLSIIAYNQPLSRSDIELIRSINSDGAVKTLIAKGLVEAKVVNEQRSQQLITTDLFLNVFGISNIEDLPTTEEDDEEMDAFFSNLVNQKGENND
- soluble on expression in E. coli: not soluble

Sequence: MAHHHHHHMVNQTPHIVILSYDEEKINKFVSFLMSTFEPLESYEKAETYKLTFDRNDFHSGNGSSFAFKEVAKVAIVNKYYSAEVTISSCVVQSGENALRVEGSMPNGGLPDEANLPNGGLPDEANTPKMDLPDGAKPELQNQANELDAKDILCESVIFLFNNFTKKEKNIVNGNPFRSYDEECVEYIKDPESQQMIRNTHFDFSNLYKDVGIKIAIFPSSLEKDNKDIVNFFSDYFIECLYINYESAFLAEGGGQDDGHPSCPEEGDQNVKEEKTLLREFEEQEDDERLVEALHCHMWKGLQIKRDHLIIQHRGDFPMGEAFKGDEAARKGEKTPQKDEASPNGEKTPQKDEAAPNGENPPQRDAPATSGAAKIDLSGTLANSAKTPEGQKEELFMENFNKIVEKIRVAKMENKNCSNHAARRKKAEEIIFELQQYFCDIDGE
- soluble on expression in E. coli: not soluble

Sequence: MKGLFLIFHGFEAFNGISKKIRYQVKALKECGLEMHTCWLDDTDNHKRRMVDESIIADYGFGIKGKILKRIEFDSIVHYVQKENIDFIYVRYVHNASPFSIRLMKLLKKTGARIVMEIPTYPYDQEYKGLPFVYQRILFIDKCFRQHLARYVDKIVTFSDYDIIWNRPTIRISNGIDFSEIPLRGPKNDTAHSLQLIAVATMHPWHGFDRVIAGMANYYRTHTDTHDYKVYLNIVGFGVPELVDSYKKDVAKHQLEKYIIFHSALYGKELDAVFEQSDMGIGSLARHRSGIDKIKTLKNREYAARGIPFVYSETDDDFEHQPYILKAAPDDSPLDIEKVIRFYQSLKTTPLQIRMSIEQSLSWKAQMQIVINETFE
- soluble on expression in E. coli: not soluble

Sequence: MGSDKIHHHHHHMTAEVAIINRSGIALAADSAVTIGRDRVWKNSNKLFHLAPSNDVAVMVFGSGDYCGLPWEVVIKEFRKSLGKTTYSRVEEYVGRFLGFLDDLVVPPTPLADLTGWYIILNAISQTQKAMTASGSLKRRQQLIAAISEKIEEADHYPLLFDGYSRDQYRKKHSQKIKEFMAEELGMHVTQTMHSKMITLCYERSRRAFETKFETGVVFAGYGDSELLPVVIEMCVDGELEGKVRAWQVRENNMNEGGTSGAILPFAQADVANLFVEGTLPQYLSYTRQTLLQTLDLKTAELVKDYVPEPDRVVEMERQKKANRAMVKQFSTDFKQYRHDESVANLLKVVNSLPKEEMAAMAEALVEITSLRRKMDSSLETVGGPVDVAIISKSDGFVWTKRKHYFDVEFNRDFMERRNQRYQGNQDA
- soluble on expression in E. coli: not soluble
